“And” between values parts separate entries of the source, which are not always exact repeats. Equal values may be shown once.
B1: C-terminal region of Atg11 (residues 700-1178) (domain or fragment, S. cerevisiae, UniProt Q12527 700-1178, looked up)
chain: NHQIQELESNVDDLLHQLQLLKEENNRKSMQISEMGKKISDLEVEKTAYRETLTNLNQELARLTNEEQSHRTEIFTLNASFKKQLNDIISQDNEKIEKLTGDYDDVSKSRERLQMDLDESNKKHEQEVNLLKADIERLGKQIVTSEKSYAETNSSSMEKGEKFETIPLAEDPGRENQISAYTQTLQDRIFDIISTNIFILENIGLLLTFDNNNNIQIRRVKGLKKGTAQSNILDESTQMLDAHDNSLIKSPVFQKLKDEYELIKSVANGSEKDTQQSIFLGNITQLYDNKLYEVAVIRRFKDIETLAKKLTKENKIKRTLLERFQREKVTLRNFQIGDLALFLPTRENVNSVGSMSSSTSSLSSSFSSVDLSTPPPLDAMSIQSSPSVIHSNVINQASISGRDKNKLMRPWAAFTAFEESTRYFLKDEKGLTKGKEWFVGRIVTLEHFVADSPSNNPFRLPKGSVWFQVTAVVVSYQGV
notes: Atg11, Saccharomyces cerevisiae, residues 700-1178 (55 kDa); Expressed from a modified pMAL-c2E vector as an MBP fusion with an HRV3C site; MBP was cleaved off; A few residues of the site may remain; also called Atg11_C; source: E. coli BL21(DE3), purified (Amylose, HRV3C cleavage, SP-Sepharose, Superdex 200)
B2: full-length S. cerevisiae Atg11 (residues 1-1178) (natural protein, UniProt Q12527 1-1178, looked up)
chain: MADADEYSTAPTQQEITPLQTTATIINAISGECITTNVDFFVSLDKFKQFIARKWKIPPDQLLILLPYGNKLKPSMFKELLINRSFTLNDFYVYDRRLFSLVSKPTPTNLLTSKDSNPMNSPNSNDLTETLEYLIKNSHISQYQGSDTIMIKPMPSPLEDADVDLSRLNYHSVTSLLTTNLGWLSALEIDVHYFKSLIPDIIAHIKRIFDGLTVCSQYLKLYCFDVESLYNSNVQFLNQLVDNGMTSKWEKCFNDTLSKLTALEGDSLQKFINIESLLENEKSVKILNHSINGKLNKIKREIDENASFRDIITVNIDRLRQMFTPNESKFELEDQMAESFEVLVSEMRTRSRNVLDKEEEEFNSQEFLKSMNVMLEKDKKESVKTLFTISQALYSQIGELIDLKKSLQKHAVAILGNIAFTQMEILGIKRLLLNECNKDLELYKKYEVEFAQVEDLPLIYGLYLIEKYRRLSWFQQILSFISNFNQDLELFKQNELRTRNKWVKNFGSIATVFCEDLLSSSDFKRLNEYHSHTSPPNEDEEDENENSIANYRQDLVKVSQAIDNYMTQIKETDVSEPIIDLLSKTLFETKRFHIIYSNFKNNNNNSSNGNSISPEGSIALKSDDVVKGYKTRIKKLESLLHEFQYSDIGHWPQGVLNTHLKPFRGSATSINKKKFLGASVLLEPANISEVNIDSVSQANNHQIQELESNVDDLLHQLQLLKEENNRKSMQISEMGKKISDLEVEKTAYRETLTNLNQELARLTNEEQSHRTEIFTLNASFKKQLNDIISQDNEKIEKLTGDYDDVSKSRERLQMDLDESNKKHEQEVNLLKADIERLGKQIVTSEKSYAETNSSSMEKGEKFETIPLAEDPGRENQISAYTQTLQDRIFDIISTNIFILENIGLLLTFDNNNNIQIRRVKGLKKGTAQSNILDESTQMLDAHDNSLIKSPVFQKLKDEYELIKSVANGSEKDTQQSIFLGNITQLYDNKLYEVAVIRRFKDIETLAKKLTKENKIKRTLLERFQREKVTLRNFQIGDLALFLPTRENVNSVGSMSSSTSSLSSSFSSVDLSTPPPLDAMSIQSSPSVIHSNVINQASISGRDKNKLMRPWAAFTAFEESTRYFLKDEKGLTKGKEWFVGRIVTLEHFVADSPSNNPFRLPKGSVWFQVTAVVVSYQGV
notes: Atg11, Saccharomyces cerevisiae, residues 1-1178 (1178 amino acids, 135 kDa); C terminus carried an HRV3C protease site followed by FLAG and 6x His tags; Residues of the HRV3C site may remain at the C terminus; also called full-length Atg11; source: High Five insect cells, baculovirus expression system, purified (Talon, HiTrap Q, HRV3C cleavage, Superose6 Increase); not shown: FLAG, C-terminal, …
B3: N-terminal region of Atg11 (residues 1-646) (protein)
chain: MADADEYSTAPTQQEITPLQTTATIINAISGECITTNVDFFVSLDKFKQFIARKWKIPPDQLLILLPYGNKLKPSMFKELLINRSFTLNDFYVYDRRLFSLVSKPTPTNLLTSKDSNPMNSPNSNDLTETLEYLIKNSHISQYQGSDTIMIKPMPSPLEDADVDLSRLNYHSVTSLLTTNLGWLSALEIDVHYFKSLIPDIIAHIKRIFDGLTVCSQYLKLYCFDVESLYNSNVQFLNQLVDNGMTSKWEKCFNDTLSKLTALEGDSLQKFINIESLLENEKSVKILNHSINGKLNKIKREIDENASFRDIITVNIDRLRQMFTPNESKFELEDQMAESFEVLVSEMRTRSRNVLDKEEEEFNSQEFLKSMNVMLEKDKKESVKTLFTISQALYSQIGELIDLKKSLQKHAVAILGNIAFTQMEILGIKRLLLNECNKDLELYKKYEVEFAQVEDLPLIYGLYLIEKYRRLSWFQQILSFISNFNQDLELFKQNELRTRNKWVKNFGSIATVFCEDLLSSSDFKRLNEYHSHTSPPNEDEEDENENSIANYRQDLVKVSQAIDNYMTQIKETDVSEPIIDLLSKTLFETKRFHIIYSNFKNNNNNSSNGNSISPEGSIALKSDDVVKGYKTRIKKLESLLHEFQYS

Key:
[1] = molecular target: the molecule itself; experiment: AUC; sedimentation velocity, 36 000 r.p.m., 20 °C; Atg11_N at 0.61 mg/mL and Atg11_C at 0.92 mg/mL in 20 mM Tris pH 8.0, 150 mM NaCl; c(s) by SEDFIT
[2] = molecular target: Q12527; experiment: SEC; Superdex 200 Increase 10/300 GL, 20 mM Tris pH 8.0, 150 mM NaCl; mass estimated from globular standards
[3] = molecular target: the molecule itself; experiment: AUC; sedimentation velocity, 42 000 r.p.m., 20 °C; full-length Atg11 at 0.65 mg/mL in 20 mM Tris pH 8.0, 300 mM NaCl, 1 mM DTT; c(s) by SEDFIT
[4] = molecular target: Q12527; experiment: SEC; Superose 6 Increase 10/300 GL, 20 mM Tris pH 8.0, 300 mM NaCl, 1 mM DTT; mass estimated from globular standards

Protein | stoichiometry N [1] | copies from the apparent SEC mass (globular standards) [2] | stoichiometry N [3] | copies from the apparent SEC mass (globular standards) [4]
B1 | 2.1 copies | 6 and 7–8 copies of each protein, respectively | – | –
B2 | – | – | 1.6 copies | 8–9 copies of Atg11
B3 | – | 6 and 7–8 copies of each protein, respectively | – | –

— PMC5757174, “Biophysical characterization of Atg11, a scaffold protein essential for selective autophagy in yeast” (FEBS Open Bio, 2017)
